The target in assay [1] is ΔEGF/Lam_Celsr3 (Celsr3-Flag lacking all the EGF repeats and Laminin domains) (mouse) (UniProt Q91ZI0). The assay can be described thus: co-IP.
In assay [2] the target is ΔLaminin G1_Celsr3 (Celsr3-Flag lacking the Laminin G1 domain) (mouse) (UniProt Q91ZI0). The experiment in a line: co-IP.

B1: mouse Frizzled3 (Frizzled3-HA) (receptor)
chain: HSLFSCEPITLRMCQDLPYNTTFMPNLLNHYDQQTAALAMEPFHPMVNLDCSRDFRPFLCALYAPICMEYGRVTLPCRRLCQRAYSECSKLMEMFGVPWPEDMECSRFPDCDEPYPRLVDLNLVGDPTEGAPVAVQRDYGFWCPRELKIDPDLGYSFLHVRDCSPPCPNMYFRREELSFARYFIGLISIICLSATLFTFLTFLIDVTRFRYPERPIIFYAVCYMMVSLIFFIGFLLEDRVACNASSPAQYKASTVTQGSHNKACTMLFMVLYFFTMAGSVWWVILTITWFLAAVPKWGSEAIEKKALLFHASAWGIPGTLTIILLAMNKIEGDNISGVCFVGLYDVDALRYFVLAPLCLYVVVGVSLLLAGIISLNRVRIEIPLEKENQDKLVKFMIRIGVFSILYLVPLLVVIGCYFYEQAYRGIWETTWIQERCREYHIPCPYQVTQMSRPDLILFLMKYLMALIVGIPSIFWVGSKKTCFEWASFFHGRRKKEIVNESRQVLQEPDFAQSLLRDPNTPIIRKSRGTSTQGTSTHASSTQLAMVDDQRSKAGSVHSKVSSYHGSLHRSRDGRYTPCSYRGMEERLPHGSMSRLTDHSRHSSSHRLNEQSRHSSIRDLSNNPMTHITHGTSMNRVIEEDGTSA
With B1, the percent reduction of the interaction against wild type Celsr3 in assay [1] came to 68%; in assay [2] it was 66%.

The values are drawn from doi:10.1101/2020.09.09.273011.
